Test results published in the supplement of paper PMC10567573.

B1: C22orf15 (parent)
chain: RGRHEQSPTSRPRKVSSLPPRSC
B2: TAF7L (parent)
chain: PDVENEVKRLLRSDAEAVSTRWEV

Variants of: B1
Assay: protein stability index of a GFP-peptide fusion (GPS, HEK-293T) (PSI 1-6); higher = more stable
Details: c terminus: native
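Further: lentivirally expressed fusions sorted by FACS into six bins by GFP to DsRed ratio, PSI derived from sequencing read proportions per bin multiplied by bin number.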

| Variant | protein stability index |
| --- | --- |
| RGRHEQSPTSRPRKVSSLPPREC [S22E] | 2.6 |
| RGRHEQSPTSRPRKVSSLPPRPC [S22P] | 3.03 |
| RGRHEQSPTSRPRKVSSLPPRDC [S22D] | 1.39 |
| RGRHEQSPTSRPRKVSSLPPRTC [S22T] | 3.62 |
| RGRHEQSPTSRPRKVSSLPPRHC [S22H] | 4.07 |
| RGRHEQSPTSRPRKVSSLPPRLC [S22L] | 2.35 |
| RGRHEQSPTSRPRKVSSLPPRQC [S22Q] | 2.27 |
| RGRHEQSPTSRPRKVSSLPARSC [P20A] | 3 |
| RGRHEQSPTSRPRKVSSLPSRSC [P20S] | 1.99 |
| RGRHEQSPTSRPRKVSSLPYRSC [P20Y] | 2.1 |
| RGRHEQSPTSRPRKVSSLPIRSC [P20I] | 2.72 |
| RGRHEQSPTSRPRKVSSLPCRSC [P20C] | 1.58 |
| RGRHEQSPTSRPRKVSSLPFRSC [P20F] | 4.13 |
| RGRHEQSPTSRPRKVSSLPVRSC [P20V] | 2.26 |
| RGRHEQSPTSRPRKVSSLPERSC [P20E] | 2.84 |
| RGRHEQSPTSRPRKVSSLPDRSC [P20D] | 3.82 |
| RGRHEQSPTSRPRKVSSLPPRST [C23T] | 2.97 |
| RGRHEQSPTSRPRKVSSLPPRSY [C23Y] | 3.2 |
| RGRHEQSPTSRPRKVSSLPPRSL [C23L] | 2.42 |
| RGRHEQSPTSRPRKVSSLPPRSW [C23W] | 2.64 |
| RGRHEQSPTSRPRKVSSLPPRSI [C23I] | 1.8 |
| RGRHEQSPTSRPRKVSSLPPRSF [C23F] | 3.5 |
| RGRHEQSPTSRPRKVSSLPPRSQ [C23Q] | 2.29 |
| RGRHEQSPTSRPRKVSSLPPRSH [C23H] | 2.29 |

| Variant | protein stability index |
| --- | --- |
| RGRHEQSPTSRPRKVSSLPPRSV [C23V] | 3.28 |
| RGRHEQSPTSRPRKVSSLPPRSN [C23N] | 5.09 |
| RGRHEQSPTSRPRKVSSLVPRSC [P19V] | 2.86 |
| RGRHEQSPTSRPRKVSSLMPRSC [P19M] | 1.93 |
| RGRHEQSPTSRPRKVSSLTPRSC [P19T] | 4.33 |
| RGRHEQSPTSRPRKVSSLRPRSC [P19R] | 2.13 |
| RGRHEQSPTSRPRKVSSLDPRSC [P19D] | 3.23 |
| RGRHEQSPTSRPRKVSSLLPRSC [P19L] | 3.07 |
| RGRHEQSPTSRPRKVSSLAPRSC [P19A] | 4.11 |
| RGRHEQSPTSRPRKVSSLFPRSC [P19F] | 2.19 |
| RGRHEQSPTSRPRKVSSLSPRSC [P19S] | 3.79 |
| RGRHEQSPTSRPRKVSSLYPRSC [P19Y] | 3.14 |
| RGRHEQSPTSRPRKVSSLQPRSC [P19Q] | 1.44 |
| RGRHEQSPTSRPRKVSSLIPRSC [P19I] | 1.81 |
| RGRHEQSPTSRPRKVSSLPPFSC [R21F] | 4.25 |
| RGRHEQSPTSRPRKVSSLPPMSC [R21M] | 3.66 |
| RGRHEQSPTSRPRKVSSLPPNSC [R21N] | 4.68 |
| RGRHEQSPTSRPRKVSSLPPYSC [R21Y] | 4.92 |
| RGRHEQSPTSRPRKVSSLPPASC [R21A] | 4.53 |
| RGRHEQSPTSRPRKVSSLPPDSC [R21D] | 5.37 |
| RGRHEQSPTSRPRKVSSLPPESC [R21E] | 5.2 |
| RGRHEQSPTSRPRKVSSLPPISC [R21I] | 2.83 |
| RGRHEQSPTSRPRKVSSLPPKSC [R21K] | 5.13 |
| RGRHEQSPTSRPRKVSSLPPLSC [R21L] | 3.37 |

| Variant | protein stability index |
| --- | --- |
| RGRHEQSPTSRPRKVSSLPPPSC [R21P] | 4.74 |
| RGRHEQSPTSRPRKVSSLPPTSC [R21T] | 4.25 |
| RGRHEQSPTSRPRKVSSLPPQSC [R21Q] | 4.51 |
| RGRHEQSPTSRPRKVSSLPPGSC [R21G] | 1.74 |
| RGRHEQSPTSRPRKVSSLPPHSC [R21H] | 4.53 |
| RGRHEQSPTSRPRKVSSLPPWSC [R21W] | 4.43 |
| RGRHEQSPTSRPRKVSSLPPSSC [R21S] | 4.8 |
| RGRHEQSPTSRPRKVSSLPPCSC [R21C] | 3.38 |
| RGRHEQSPTSRPRKVSSLPPVSC [R21V] | 2.88 |
| RGRHEQSPTSRPRKVSSWPPRSC [L18W] | 3.64 |
| RGRHEQSPTSRPRKVSSYPPRSC [L18Y] | 2.29 |
| RGRHEQSPTSRPRKVSSAPPRSC [L18A] | 1.68 |
| RGRHEQSPTSRPRKVSSCPPRSC [L18C] | 2.88 |
| RGRHEQSPTSRPRKVSSHPPRSC [L18H] | 3.38 |
| RGRHEQSPTSRPRKVSSDPPRSC [L18D] | 1.5 |
| RGRHEQSPTSRPRKVSSMPPRSC [L18M] | 3.65 |
| RGRHEQSPTSRPRKVSSVPPRSC [L18V] | 3.25 |
| RGRHEQSPTSRPRKVSSTPPRSC [L18T] | 4.07 |
| RGRHEQSPTSRPRKVSSIPPRSC [L18I] | 2.76 |
| RGRHEQSPTSRPRKVSYLPPRSC [S17Y] | 2.45 |
| RGRHEQSPTSRPRKVSRLPPRSC [S17R] | 3.79 |
| RGRHEQSPTSRPRKVSPLPPRSC [S17P] | 3.73 |
| RGRHEQSPTSRPRKVSQLPPRSC [S17Q] | 2.34 |

Variants of: B2
Assay: as above
Details: c terminus: a fixed tail appended

| Variant | protein stability index |
| --- | --- |
| PDVENEVKRLARSDAEAVSTRWEV [L11A] | 4.29 |
| PDVENEVKRLERSDAEAVSTRWEV [L11E] | 5.07 |
| PDVENEVKRLCRSDAEAVSTRWEV [L11C] | 3.25 |
| PDVENEVKRLDRSDAEAVSTRWEV [L11D] | 4.9 |
| PQVENEVKRLLRSDAEAVSTRWEV [D2Q] | 2.62 |
| PMVENEVKRLLRSDAEAVSTRWEV [D2M] | 3.13 |
| PVVENEVKRLLRSDAEAVSTRWEV [D2V] | 3.2 |
| PIVENEVKRLLRSDAEAVSTRWEV [D2I] | 1.94 |
| PKVENEVKRLLRSDAEAVSTRWEV [D2K] | 3.71 |
| PLVENEVKRLLRSDAEAVSTRWEV [D2L] | 2.56 |
| PFVENEVKRLLRSDAEAVSTRWEV [D2F] | 3.15 |
| PCVENEVKRLLRSDAEAVSTRWEV [D2C] | 2.9 |
| PYVENEVKRLLRSDAEAVSTRWEV [D2Y] | 2.81 |
| PTVENEVKRLLRSDAEAVSTRWEV [D2T] | 2.59 |
| PPVENEVKRLLRSDAEAVSTRWEV [D2P] | 3.58 |
| PHVENEVKRLLRSDAEAVSTRWEV [D2H] | 2.69 |
| PAVENEVKRLLRSDAEAVSTRWEV [D2A] | 3.91 |
| PDVANEVKRLLRSDAEAVSTRWEV [E4A] | 4.39 |
| PDVFNEVKRLLRSDAEAVSTRWEV [E4F] | 1 |
| PDVCNEVKRLLRSDAEAVSTRWEV [E4C] | 2.38 |
| PDVQNEVKRLLRSDAEAVSTRWEV [E4Q] | 3.21 |
| PDVPNEVKRLLRSDAEAVSTRWEV [E4P] | 3.86 |
| PDVVNEVKRLLRSDAEAVSTRWEV [E4V] | 2.76 |
| PDVKNEVKRLLRSDAEAVSTRWEV [E4K] | 3.35 |
